B1: BpsA: single module NRPS protein of S. lavendulae ATCC11924 that converts L-glutamine into indigoidine; SEQ ID NO: 3 (protein, listed as Streptomyces lavendulae)
chain: MTLQETSVLEPTLQGTTTLPGLLAQRVAEHPEAIAVAYRDDKLTFRELASRSAALADYLEHLGVSADDCVGLFVEPSIDLMVGAWGILNAGAAYLPLSPEYPEDRLRYMIENSETKIILAQQRLVSRLRELAPKDVTIVTLRESEAFVRPEGTEAPAARSARPDTLAYVIYTSGSTGKPKGVMIEHRSIVNQLGWLRETYAIDRSKVILQKTPMSFDAAQWEILSPANGATVVMGAPGVYADPEGLIETIVKHNVTTLQCVPTLLQGLIDTEKFPECVSLQQIFSGGEALSRLLAIQTTQEMPGRALINVYGPTETTINSSSFPVDPADLDEGPQSISIGSPVHGTTYHILDKETLKPVGVGEIGELYIGGIQLARGYLHRDDLTAERFLEIELEEGAEPVRLYKTGDLGQWNNDGTVQFAGRADNQVKLRGYRVELDEISLAIENHDWVRNAAVIVKNDGRTGFQNLIACIELSEKEAALMDQGNHGSHHASKKSKLQVKAQLSNPGLRDDAELAARPAFDLEGAEPTPEQRARVFARKTYRFYEGGAVTQADLLGLLGATVTAGYSRKAADLAPAELGQILRWFGQYISEERLLPKYGYASPGALYATQMYFELEGVGGLKPGYYYYQPVRHQLVLISEREATGKATAQIHFIGKKSGIEPVYKNNILEVLEIETGHMVGLFEQILPAYGLDIHDRAYEPAVKDLLDVADEDYYLGTFELVPHAGARDDQAEVYVQTHGGKVAGLPEGQYRYENGELTRFSDDIVLKKHVIAINQSVYQAASFGISVYSRAEEEWLKYITLGKKLQHLMMNGLNLGFMSSGYSSKTGNPLPASRRMDAVLGANGVDSAPMYFFVGGRISDEQIGHEGMREDSVHMRGPAELIRDDLVSFLPDYMIPNRVVVFDRLPLSANGKIDVKALAASDQVNAELVERPFVAPRTETEKEIAAVWEKALRRENASVQDDFFESGGNSLIAVGLVRELNARLGVSLPLQSVLESPTIEKLARRLEREVAQESSRFVRLHAETGKARPVICWPGLGGYPMNLRSLAGEIGLGRSFYGVQSYGINEGETPYETITEMAKKDIEALKEIQPAGPYTLWGYSFGARVAFETAYQLEQAGEKVDNLFLIAPGSPKVRAENGKVWGREASFANRGYTTILFSVFTGTISGPDLDRCLETVTDEASFAEFISELKGIDVDLARRIISVVGQTYEFEYSFHELAERTLQAPISIFKAVGDDYSFLENSSGYSAEPPTVIDLDADHYSLLREDIGELVKHIRYLLGE
B2: Sfp: PPTase of B. subtilis subsp. spizizenii ATCC6633 (protein, UniProt P39135 1-224, looked up)
4'-phosphopantetheinyl …: MKIYGIYMDRPLSQEENERFMSFISPEKREKCRRFYHKEDAHRTLLGDVLVRSVISRQYQLDKSDIRFSTQEYGKPCIPDLPDAHFNISHSGRWVICAFDSQPIGIDIEKTKPISLEIAKRFFSKTEYSDLLAKDKDEQTDYFYHLWSMKESFIKQEGKGLSLPLDSFSVRLHQDGQVSIELPDSHSPCYIKTYEVDPGYKMAVCAAHPDFPEDITMVSYEELL

How the values were obtained:
[1] = BpsA indigoidine synthesis kinetics with respect to ATP (values used in PPTase unit conversion); format: biochemical
From the text: The raw data input into SigmaPlot for derivation of kinetic parameters for the PPTases PcpS and PP1183 was maximum change in indigoidine (ind) synthesis reaction rate (change in gradient per second) vs. concentration of CoA present in the reaction. The Vmax values given by SigmaPlot therefore had the units “Change in gradient per second” The assumptions made and calculations used to convert this standard enzyme kinetics units are given below. […] As such the assumption can be made that reaction rate for this enzyme is directly proportional to the concentration of active enzyme according to the equation:
For the reactions used in derivation of kinetic parameters of PPTases, [BpsA]=[E]=1.64 uM. [S]=[ATP]=1 mM.

[2] = BpsA indigoidine synthesis kinetics, L-Gln as variable substrate; format: biochemical
Protocol: Analysis of BpsA reaction rate over a replicate two fold serial dilution series (0.78 μM-16 mM) of L-gln was conducted at both pH 7.8 (sodium phosphate) and 8.0 (Tris-Cl). […] As such the ΔA590 was expected to be directly proportional to the concentration of holo-BpsA present in a reaction. This assumption was experimentally verified by monitoring reaction velocity at ten different concentrations of holo-BpsA (360 nM-1.14 μM) at constant L-gln/ATP concentrations; as shown in FIG. 6C the relationship between enzyme concentration and velocity is linear within this range (R^2=0.989). Owing to the lack of an extinction co-efficient for indigoidine in water, coupled with formation of insoluble precipitate, we were unable to derive a kcat value for BpsA. We were however able to discern a reproducible maximum velocities which are expressed with the units ΔA590/s. These parameters were subsequently employed for the derivation of PPTase kinetics as outlined in section 4.11.
Pre-activation mix to bring about conversion of apo to holo BpsA contained 3.4 μM apo-BpsA, 0.25 μM PcpS, 10 mM MgCl2, 100 μM CoA and 50 mM buffer (sodium phosphate buffer pH 7.8 or Tris-Cl pH 8.0) and was incubated for 20 min at 30° C.
A590 measurements were then taken every 6-10 s for ten minutes using an envision EnSpire® microplate reader. The resulting data was visualized and velocities derived using the Slope function of Microsoft Excel®. Kinetic parameters were derived from velocity values using Graphpad Prism®. For examination of the relationship between BpsA concentration and reaction velocity, a triplicate two fold serial dilution series of pre-activated BpsA was established in a 96 wp in a final volume of 50 μL, 100 μl reaction mix without L-gln or ATP was then added to each well. […] A590 values were then recorded and data analysed as previously described.

[3] = BpsA coupled assay for PPTase kinetic parameters, CoA as variable substrate; format: biochemical; details: BpsA fixed at 0.83 μM
From the text: Having established a linear relationship between concentration of holo-BpsA and the apparent rate of indigoidine synthesis in aqueous solution, we next wanted to test whether it was possible to evaluate PPTase activity by using acceleration of the rate of indigoidine synthesis as a measure of the rate of 4′-PP attachment to apo-BpsA. Replicate solutions containing PPTase and all of the substrates necessary for both phosphopantetheinylation and indigoidine synthesis were established using a twofold serial dilution series of CoA (0.024-50 μM) in ninety six well plates. Reactions were initiated by addition of 0.83 μM BpsA each well of a dilution series, and absorbance at 590 nm was measured continuously. Under these conditions, the pigment synthesis reaction undergoes an initial acceleration phase as apo-BpsA is converted to holo-BpsA by the PPTase. […]
A590 values were then recorded as previously described. […] A590 values were then recorded as previously described. For derivation of PPTase velocity values, the slope between every 2-8 data points was measured across the entire data range with the resulting values forming a new data set (BpsA velocity). The slope between every 2-8 points in the BpsA velocity data set was then determined using the slope function of Microsoft Excel and the maximum value from the resulting data set for each reaction taken as a measure of PPTase velocity. […]

BpsA [4] = target: T1, BpsA (Streptomyces lavendulae, UniProt Q1MWN4); experiment: BpsA coupled assay for PPTase kinetic parameters, BpsA as variable substrate; format: biochemical, S. lavendulae ATCC 11924; details: CoA fixed at 25 μM
T1 construct: 6His; made in house; host or cells: E. coli
From the text: Having established a linear relationship between concentration of holo-BpsA and the apparent rate of indigoidine synthesis in aqueous solution, we next wanted to test whether it was possible to evaluate PPTase activity by using acceleration of the rate of indigoidine synthesis as a measure of the rate of 4′-PP attachment to apo-BpsA. […] Under these conditions, the pigment synthesis reaction undergoes an initial acceleration phase as apo-BpsA is converted to holo-BpsA by the PPTase. […]
A590 values were then recorded as previously described. […] A590 values were then recorded as previously described. For derivation of PPTase velocity values, the slope between every 2-8 data points was measured across the entire data range with the resulting values forming a new data set (BpsA velocity). The slope between every 2-8 points in the BpsA velocity data set was then determined using the slope function of Microsoft Excel and the maximum value from the resulting data set for each reaction taken as a measure of PPTase velocity. […] For fast reactions smaller increments could be used, however for slow reactions noise from plate reader noise became a significant factor in point to point variation and created artificial fluctuations in measured slopes if too few points were used in slope determination. […]

BpsA [5] = experiment: Qualitative PPTase activity in vivo by co-expression with a BpsA reporter in E. coli; format: cell-based, S. lavendulae ATCC 11924; details: E. coli BL21(DE3), auto-induction agar plates
Protocol: Single colonies of E. coli co-expressing BpsA and an activating PPTase were inoculated onto pigment production agar plate using a sterile pipette tip and incubated for 16 hours at 37° C. Protein expression was then induced by IPTG addition as described in Section 4.9.2 and the plate incubated for a further 24 h at room temperature (18-25° C.).
We constructed plasmids that allowed IPTG regulated co-expression of a candidate PPTase and BpsA in E. coli BL21(DE3). To enable IPTG regulated co-expression the BpsA gene of S. lavendulae ATCC 11924 was cloned into pCDFDUET-1 (Novagen) and three candidate PPTases into the (origin of replication compatible) vector pET28a(+). […] In contrast, if IPTG was absent from the medium viable co-transformed cells were recovered with good efficiency (not shown). […] In order to circumvent this problem we employed auto-induction agar plates, prepared by addition of 1.5% agar to Studier ZYP-5052 auto-induction medium (Studier 2005). Use of auto-induction agar plates allowed for both rapid growth and efficient induction of pigment production following extended incubation at room temperature.

Molecule	Km ([1]; ATP as substrate) [µM]	Kcat (BpsA) ([1]; value used for unit conversion of PPTase kinetics) [s⁻¹]	Km ([2]; NaPh pH 7.8, ATP 2.5 mM) [µM]	Vmax ([2]; NaPh pH 7.8, ATP 2.5 mM)	Km ([2]; Tris-Cl pH 8.0, ATP 2.5 mM) [µM]	Vmax ([2]; Tris-Cl pH 8.0, ATP 2.5 mM)	Km [3] [µM]	kcat [3] [s⁻¹]	Km (BpsA [4]) [µM]	kcat (BpsA [4]) [s⁻¹]	Indigoidine production on co-expression with BpsA (BpsA [5])
B1	11100	4.0223	2430	1.8 +/− 0.03 (ΔA590 · S^−1 · μM^−1) × 10^−2	3330	6.5 +/− 0.1 (ΔA590 · S^−1 · μM^−1) × 10^−2	–	–	–	–	–
B2	–	–	–	–	–	–	0.62	0.00213 ± 6.7e-05	3.3	0.0357 ± 0.00067	substantial production of indigoidine

Source: patent US20130260436A1, “Methods of Identifying and Characterizing Natural Product Gene Clusters” (Victoria LInk Limited, priority 2010, published 2013)
